Results as given in publication PMC11940065 (2025).

Molecular target: Methionine-1-linked triubiquitin (UniProt P0CG48 1-76; P0CG48 1-76; P0CG48 1-76)
Experiment: MST

Chain of Methionine-1-linked triubiquitin (P0CG48 1-228, one chain of several): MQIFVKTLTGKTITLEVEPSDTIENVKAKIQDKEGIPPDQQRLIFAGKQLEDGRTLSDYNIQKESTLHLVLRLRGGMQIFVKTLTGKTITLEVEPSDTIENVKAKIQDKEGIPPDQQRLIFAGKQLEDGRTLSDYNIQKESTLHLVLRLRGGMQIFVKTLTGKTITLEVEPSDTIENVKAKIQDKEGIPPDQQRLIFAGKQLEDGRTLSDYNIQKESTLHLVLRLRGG

Binder	Kd [µM]
AHD1-UBAN E444F (domain or fragment) QRLNKALEEALSIQTPPSSPPTAFGSPFGAGALLRKQELVTQNELLKQQVKIFEEDFQRERSDRERMNEEKEELKKQVEKLQAQVTLSNAQLK	3.52
AHD1-UBAN E425Q (domain or fragment) QRLNKALEQALSIQTPPSSPPTAFGSPEGAGALLRKQELVTQNELLKQQVKIFEEDFQRERSDRERMNEEKEELKKQVEKLQAQVTLSNAQLK	5.5
